B1: 6-repeat peptide (FE)6, E6 (peptide)
peptide: FEFEFEFEFEFE
notes: designed amphiphilic peptide, six repeats of the dipeptide Phe-Glu; Forms supramolecular fibres; also called (FE)n with n = 6
B2: E7 peptide (peptide)
peptide: EFEFEFEFEFEFE
notes: designed amphiphilic peptide, E6 with one more glutamic acid at the N-terminus; In the coassemblies it stood as pre-formed, sonicated self-assembled fibres; also called E7 fibers; E7 self-assembled fibers
B3: E9 peptide (peptide)
peptide: EEFEFEFEFEFEFEE
notes: designed amphiphilic peptide, E6 with additional glutamic acids at both termini

Target: the molecule itself
Test: AFM + other: TEM; peptides in water at pH ≈ 5, sonicated 10 min, annealed at 80° for 30 min; AFM on mica at 1 mM, dry tapping mode; TEM at 10 μM, negative staining with uranyl acetate

Does B1 bind?
Result: binds

Does B2 bind?
Result: binds

Does B3 bind?
Result: binds
